This passage reports Kd and binding signal results from PMC2807882, “Conservation of DNA-binding specificity and oligomerisation properties within the p53 family”.

What all share (assay): anisotropy competition; 25 mM NaPi, 225 mM NaCl, 10% v/v glycerol, 5 mM DTT, 0.2 mg/mL BSA, 22°C; 20 nM labelled DNA; pH not stated for the binding assay
Common to all, as to settings: protein: recombinant; tags: N-terminal 6xHis-lipoyl-TEV tag, cleaved; chain copies: 4

The target of data set [1] is T1, Xlp53 (Xenopus laevis, UniProt Q7T1D0 1-362).
The target in data set [2] is T1, Xlp53. This is another data set of the same source.
Another data set has as its target Hsp53 (Homo sapiens, UniProt P04637 1-393).
The target in the next data set is T2, Dmp53 (Drosophila melanogaster, UniProt Q9N6D8 1-385).
T2 sequence: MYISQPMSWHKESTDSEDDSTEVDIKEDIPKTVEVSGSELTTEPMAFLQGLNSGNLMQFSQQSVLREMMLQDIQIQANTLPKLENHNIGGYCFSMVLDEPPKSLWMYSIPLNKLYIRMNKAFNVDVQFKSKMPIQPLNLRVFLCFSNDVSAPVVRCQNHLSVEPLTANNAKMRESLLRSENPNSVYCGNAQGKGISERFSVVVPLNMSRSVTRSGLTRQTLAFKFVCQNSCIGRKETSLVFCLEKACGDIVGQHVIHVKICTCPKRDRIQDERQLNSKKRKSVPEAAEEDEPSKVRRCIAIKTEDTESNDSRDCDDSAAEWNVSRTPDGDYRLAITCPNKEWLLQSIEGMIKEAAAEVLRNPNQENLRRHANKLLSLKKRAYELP

The next data set addresses T3, ΔNp63γ (Homo sapiens, UniProt Q9H3D4-6 1-393).
T3 sequence: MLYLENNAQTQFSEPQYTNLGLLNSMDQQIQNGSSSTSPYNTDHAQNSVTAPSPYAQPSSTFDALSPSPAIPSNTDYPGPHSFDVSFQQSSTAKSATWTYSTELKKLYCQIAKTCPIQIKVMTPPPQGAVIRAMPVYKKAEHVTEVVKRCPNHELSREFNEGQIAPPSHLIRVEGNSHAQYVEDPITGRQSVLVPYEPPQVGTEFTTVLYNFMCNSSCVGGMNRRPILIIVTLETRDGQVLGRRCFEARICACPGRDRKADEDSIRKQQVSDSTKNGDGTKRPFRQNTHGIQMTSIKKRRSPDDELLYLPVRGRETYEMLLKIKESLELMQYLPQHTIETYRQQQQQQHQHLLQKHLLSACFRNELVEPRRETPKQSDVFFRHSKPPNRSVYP

A further data set has as its target Mmp53 (Mus musculus, UniProt P02340 1-390).
A further data set addresses T4, Drp53 (Danio rerio, UniProt P79734 1-373).
T4 sequence: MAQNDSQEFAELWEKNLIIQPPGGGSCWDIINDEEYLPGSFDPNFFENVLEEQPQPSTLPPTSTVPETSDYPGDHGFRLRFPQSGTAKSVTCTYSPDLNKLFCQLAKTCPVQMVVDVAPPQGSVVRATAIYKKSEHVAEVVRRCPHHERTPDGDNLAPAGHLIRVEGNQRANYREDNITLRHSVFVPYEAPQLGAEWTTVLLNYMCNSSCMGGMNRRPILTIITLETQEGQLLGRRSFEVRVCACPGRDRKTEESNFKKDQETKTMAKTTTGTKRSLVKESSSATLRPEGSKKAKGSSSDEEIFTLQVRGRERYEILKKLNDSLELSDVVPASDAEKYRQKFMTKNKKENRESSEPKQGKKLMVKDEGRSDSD

A further data set has as its target T5, ΔNp73β (Homo sapiens, UniProt O15350-9 1-450).
T5 sequence: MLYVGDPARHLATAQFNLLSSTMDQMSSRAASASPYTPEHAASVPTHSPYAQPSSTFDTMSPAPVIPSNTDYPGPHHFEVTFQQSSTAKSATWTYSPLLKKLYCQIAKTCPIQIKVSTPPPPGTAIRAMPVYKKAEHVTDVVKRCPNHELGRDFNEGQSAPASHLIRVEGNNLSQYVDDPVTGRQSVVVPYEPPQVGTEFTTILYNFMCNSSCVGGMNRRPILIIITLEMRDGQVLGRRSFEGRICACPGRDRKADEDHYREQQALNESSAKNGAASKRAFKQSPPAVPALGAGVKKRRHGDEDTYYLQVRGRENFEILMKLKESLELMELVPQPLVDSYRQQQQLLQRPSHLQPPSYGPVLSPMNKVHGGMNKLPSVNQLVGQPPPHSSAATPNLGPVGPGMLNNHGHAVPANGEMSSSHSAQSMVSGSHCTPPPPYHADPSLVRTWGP

Another data set concerns the target T6, ΔNp63β (Homo sapiens, UniProt Q9H3D4-4 1-461).
T6 sequence: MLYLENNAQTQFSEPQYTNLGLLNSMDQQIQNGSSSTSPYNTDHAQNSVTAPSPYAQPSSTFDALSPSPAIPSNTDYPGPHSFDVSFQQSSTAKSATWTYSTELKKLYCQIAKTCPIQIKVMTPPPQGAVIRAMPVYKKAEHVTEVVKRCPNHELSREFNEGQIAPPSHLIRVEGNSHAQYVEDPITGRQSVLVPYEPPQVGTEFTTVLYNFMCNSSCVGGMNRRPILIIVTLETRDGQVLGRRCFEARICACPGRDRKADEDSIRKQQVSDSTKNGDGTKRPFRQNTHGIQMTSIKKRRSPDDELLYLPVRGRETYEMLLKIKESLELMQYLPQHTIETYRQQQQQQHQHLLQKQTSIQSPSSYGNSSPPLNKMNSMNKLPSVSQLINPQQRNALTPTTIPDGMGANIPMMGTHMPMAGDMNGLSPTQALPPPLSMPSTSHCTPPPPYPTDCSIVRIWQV

A further data set has as its target T7, ΔNp63α (Homo sapiens, UniProt Q9H3D4-2 1-586).
T7 sequence: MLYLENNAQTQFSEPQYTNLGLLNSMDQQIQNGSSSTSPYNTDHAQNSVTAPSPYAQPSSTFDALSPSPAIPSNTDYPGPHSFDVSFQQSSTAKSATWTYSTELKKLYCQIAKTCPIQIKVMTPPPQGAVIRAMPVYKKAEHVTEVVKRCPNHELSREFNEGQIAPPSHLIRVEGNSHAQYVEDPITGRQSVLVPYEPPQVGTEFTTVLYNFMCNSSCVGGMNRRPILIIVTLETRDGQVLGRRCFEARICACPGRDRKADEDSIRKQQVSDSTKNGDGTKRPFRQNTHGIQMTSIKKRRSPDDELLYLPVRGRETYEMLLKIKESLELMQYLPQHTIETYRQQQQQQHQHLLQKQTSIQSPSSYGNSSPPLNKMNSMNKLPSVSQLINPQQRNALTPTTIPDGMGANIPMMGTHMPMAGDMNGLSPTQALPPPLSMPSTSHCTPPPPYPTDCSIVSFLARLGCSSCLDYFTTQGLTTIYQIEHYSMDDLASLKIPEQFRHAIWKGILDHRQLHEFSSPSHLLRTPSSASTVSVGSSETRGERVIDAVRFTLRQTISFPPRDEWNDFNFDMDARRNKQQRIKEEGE

Mmp53, sequence (P02340 whole entry): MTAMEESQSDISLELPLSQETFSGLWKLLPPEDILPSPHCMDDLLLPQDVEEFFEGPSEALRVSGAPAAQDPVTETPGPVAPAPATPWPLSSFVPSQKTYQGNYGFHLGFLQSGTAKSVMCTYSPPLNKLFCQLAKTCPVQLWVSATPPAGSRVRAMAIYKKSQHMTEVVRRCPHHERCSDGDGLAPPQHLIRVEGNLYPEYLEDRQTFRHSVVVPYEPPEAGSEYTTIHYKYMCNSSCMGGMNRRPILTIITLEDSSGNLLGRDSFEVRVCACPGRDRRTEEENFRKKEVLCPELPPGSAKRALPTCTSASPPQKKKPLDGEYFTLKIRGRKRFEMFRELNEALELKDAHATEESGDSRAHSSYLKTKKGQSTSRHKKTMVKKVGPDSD
T1 sequence (Q7T1D0 entry or part of it): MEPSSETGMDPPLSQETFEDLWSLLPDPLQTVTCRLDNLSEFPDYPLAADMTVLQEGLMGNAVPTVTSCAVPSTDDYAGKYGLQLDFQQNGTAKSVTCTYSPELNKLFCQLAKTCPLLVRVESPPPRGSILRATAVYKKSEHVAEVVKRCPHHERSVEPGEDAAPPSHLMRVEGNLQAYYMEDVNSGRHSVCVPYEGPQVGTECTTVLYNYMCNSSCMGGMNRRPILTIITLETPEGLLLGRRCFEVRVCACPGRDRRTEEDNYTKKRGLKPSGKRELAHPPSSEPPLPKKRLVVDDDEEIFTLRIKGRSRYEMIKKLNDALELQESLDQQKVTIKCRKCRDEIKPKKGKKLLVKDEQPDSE
Hsp53, sequence (P04637 whole entry): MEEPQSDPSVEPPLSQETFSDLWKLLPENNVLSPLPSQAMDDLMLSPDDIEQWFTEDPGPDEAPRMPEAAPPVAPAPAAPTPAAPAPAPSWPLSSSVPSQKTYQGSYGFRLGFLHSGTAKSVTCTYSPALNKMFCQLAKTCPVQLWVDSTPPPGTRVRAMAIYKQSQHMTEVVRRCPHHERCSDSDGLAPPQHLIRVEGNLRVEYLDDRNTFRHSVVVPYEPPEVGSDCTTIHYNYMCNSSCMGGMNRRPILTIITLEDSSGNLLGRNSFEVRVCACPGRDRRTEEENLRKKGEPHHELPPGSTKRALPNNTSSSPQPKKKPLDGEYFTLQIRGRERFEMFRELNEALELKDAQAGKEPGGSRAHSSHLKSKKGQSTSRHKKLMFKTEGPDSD

B1: A5G (dsDNA)
DNA 1: CGCGGACGTGTCCGGACATGTCCCGC
DNA 2: GCGGGACATGTCCGGACACGTCCGCG
Take B1: the Kd with Xlp53 [1] is -6.64 log10(M).

B2: A3C (dsDNA)
DNA 1: CGCGGCCATGTCCGGACATGTCCCGC
DNA 2: GCGGGACATGTCCGGACATGGCCGCG
On to B2, for which the binding signal with Xlp53 [2] is 0.82 ΔlogKd vs ref; with Hsp53, 0.66 ΔlogKd vs ref; with Dmp53, 0.75 ΔlogKd vs ref; with ΔNp63γ it was 0.93 ΔlogKd vs ref; in the data set with Mmp53 it was 0.46 ΔlogKd vs ref.

B3: G2C (dsDNA)
DNA 1: CGCGCACATGTCCGGACATGTCCCGC
DNA 2: GCGGGACATGTCCGGACATGTGCGCG
For the molecule B3, the binding signal with Xlp53 [2] was 0.27 ΔlogKd vs ref; in the data set with Hsp53, 0.37 ΔlogKd vs ref; in the data set with Drp53 it was 0.41 ΔlogKd vs ref; in the data set with ΔNp73β, 0.44 ΔlogKd vs ref; with ΔNp63β it was 0.36 ΔlogKd vs ref; with ΔNp63γ it was 0.37 ΔlogKd vs ref. Moreover, the binding signal with ΔNp63α was 0.15 ΔlogKd vs ref; with Mmp53, 0.28 ΔlogKd vs ref.

B4: A5C (dsDNA)
DNA 1: CGCGGACCTGTCCGGACATGTCCCGC
DNA 2: GCGGGACATGTCCGGACAGGTCCGCG
Regarding B4, the binding signal was 0.48 ΔlogKd vs ref in the data set with Xlp53 [2]; 0.45 ΔlogKd vs ref with Hsp53; 0.77 ΔlogKd vs ref with Drp53; 0.64 ΔlogKd vs ref with ΔNp73β; 0.54 ΔlogKd vs ref with Dmp53; 0.57 ΔlogKd vs ref with ΔNp63β. The binding signal with ΔNp63γ was 0.58 ΔlogKd vs ref; with ΔNp63α, 0.3 ΔlogKd vs ref; with Mmp53 it was 0.4 ΔlogKd vs ref.

B5: T6C (dsDNA)
DNA 1: CGCGGACACGTCCGGACATGTCCCGC
DNA 2: GCGGGACATGTCCGGACGTGTCCGCG
As for B5, the binding signal in the data set with Xlp53 [2] is 0.7 ΔlogKd vs ref; with Hsp53, 0.53 ΔlogKd vs ref; with Drp53, 0.65 ΔlogKd vs ref; in the data set with ΔNp73β, 0.62 ΔlogKd vs ref; with Dmp53 it was 0.25 ΔlogKd vs ref; in the data set with ΔNp63β it was 0.57 ΔlogKd vs ref. For the same molecule, the binding signal with ΔNp63γ was 0.52 ΔlogKd vs ref; with ΔNp63α, 0.25 ΔlogKd vs ref; with Mmp53 it was 0.36 ΔlogKd vs ref.

B6: G7C (dsDNA)
DNA 1: CGCGGACATCTCCGGACATGTCCCGC
DNA 2: GCGGGACATGTCCGGAGATGTCCGCG
On to B6, for which the binding signal with Hsp53 was 0.9 ΔlogKd vs ref; in the data set with Drp53, 1.3 ΔlogKd vs ref; in the data set with ΔNp73β it was 1.8 ΔlogKd vs ref; in the data set with Dmp53, 1.51 ΔlogKd vs ref; with ΔNp63β, 1.45 ΔlogKd vs ref; with ΔNp63γ, 1.68 ΔlogKd vs ref. The binding signal with ΔNp63α was 1.33 ΔlogKd vs ref; in the data set with Mmp53 it was 0.67 ΔlogKd vs ref. The Kd with Xlp53 [1] was -5.7 log10(M).
